# From patent US20150259408A1 (PROTHENA BIOSCIENCES, published 2015)
# T1: human LAMA4 G domain LG1-5 displayed on 293 cells (pDisplay) (human, UniProt Q16363 830-1821, limits assumed)
# T1 construct: The pDisplay vector parts (leader, tags, PDGFR transmembrane anchor) are not described; also called LAMA4-displaying 293 cells; Human LAMA4 G-domains 1-5
# T1 sequence: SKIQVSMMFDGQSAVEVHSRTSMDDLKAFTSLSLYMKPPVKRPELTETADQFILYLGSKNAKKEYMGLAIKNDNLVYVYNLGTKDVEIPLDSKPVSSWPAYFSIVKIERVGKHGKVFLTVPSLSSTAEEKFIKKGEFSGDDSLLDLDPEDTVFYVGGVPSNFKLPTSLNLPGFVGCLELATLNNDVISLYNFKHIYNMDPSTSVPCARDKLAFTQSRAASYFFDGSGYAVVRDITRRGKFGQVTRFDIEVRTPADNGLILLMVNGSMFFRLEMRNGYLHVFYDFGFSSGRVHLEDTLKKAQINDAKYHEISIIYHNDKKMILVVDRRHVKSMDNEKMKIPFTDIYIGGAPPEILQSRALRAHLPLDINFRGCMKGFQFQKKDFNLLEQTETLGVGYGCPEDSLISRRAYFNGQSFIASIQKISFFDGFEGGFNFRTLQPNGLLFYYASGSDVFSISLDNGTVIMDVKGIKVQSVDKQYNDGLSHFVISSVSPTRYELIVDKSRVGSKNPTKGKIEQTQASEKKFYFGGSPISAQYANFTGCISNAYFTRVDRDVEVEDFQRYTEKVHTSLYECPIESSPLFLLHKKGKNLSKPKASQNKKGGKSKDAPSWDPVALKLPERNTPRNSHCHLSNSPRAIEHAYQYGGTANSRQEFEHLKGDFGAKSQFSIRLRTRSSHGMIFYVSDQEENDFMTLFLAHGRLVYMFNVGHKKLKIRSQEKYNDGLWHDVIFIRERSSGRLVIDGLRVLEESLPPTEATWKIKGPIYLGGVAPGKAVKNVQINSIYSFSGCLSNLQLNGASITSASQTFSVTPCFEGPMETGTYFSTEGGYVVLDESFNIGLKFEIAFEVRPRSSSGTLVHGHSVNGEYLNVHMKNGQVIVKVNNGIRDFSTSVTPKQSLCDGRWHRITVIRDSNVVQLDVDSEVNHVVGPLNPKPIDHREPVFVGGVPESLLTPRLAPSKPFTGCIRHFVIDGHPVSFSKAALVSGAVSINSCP
# T2: human LAMA4 LG1-3 fragment displayed on 293 cells (pDisplay) (human, UniProt Q16363 830-1430, limits assumed)
# T2 sequence: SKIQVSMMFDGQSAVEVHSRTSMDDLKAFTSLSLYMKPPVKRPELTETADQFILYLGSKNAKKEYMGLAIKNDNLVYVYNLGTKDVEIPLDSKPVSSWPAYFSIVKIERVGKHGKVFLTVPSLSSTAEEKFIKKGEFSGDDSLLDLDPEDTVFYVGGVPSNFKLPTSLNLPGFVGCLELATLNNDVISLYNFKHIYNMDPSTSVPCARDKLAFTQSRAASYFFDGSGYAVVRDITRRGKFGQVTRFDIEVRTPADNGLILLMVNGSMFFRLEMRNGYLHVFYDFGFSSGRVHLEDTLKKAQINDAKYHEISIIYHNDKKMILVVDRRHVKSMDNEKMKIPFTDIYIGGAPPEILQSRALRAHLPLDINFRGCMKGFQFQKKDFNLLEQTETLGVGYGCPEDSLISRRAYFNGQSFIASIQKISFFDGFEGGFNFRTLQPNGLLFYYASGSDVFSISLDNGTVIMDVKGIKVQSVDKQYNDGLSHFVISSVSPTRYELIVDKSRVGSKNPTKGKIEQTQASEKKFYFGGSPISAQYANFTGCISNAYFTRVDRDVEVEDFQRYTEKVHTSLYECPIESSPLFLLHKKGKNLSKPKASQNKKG
# T3: LAMA4 / purified His-LAMA4 (species not stated)
# T3 chain: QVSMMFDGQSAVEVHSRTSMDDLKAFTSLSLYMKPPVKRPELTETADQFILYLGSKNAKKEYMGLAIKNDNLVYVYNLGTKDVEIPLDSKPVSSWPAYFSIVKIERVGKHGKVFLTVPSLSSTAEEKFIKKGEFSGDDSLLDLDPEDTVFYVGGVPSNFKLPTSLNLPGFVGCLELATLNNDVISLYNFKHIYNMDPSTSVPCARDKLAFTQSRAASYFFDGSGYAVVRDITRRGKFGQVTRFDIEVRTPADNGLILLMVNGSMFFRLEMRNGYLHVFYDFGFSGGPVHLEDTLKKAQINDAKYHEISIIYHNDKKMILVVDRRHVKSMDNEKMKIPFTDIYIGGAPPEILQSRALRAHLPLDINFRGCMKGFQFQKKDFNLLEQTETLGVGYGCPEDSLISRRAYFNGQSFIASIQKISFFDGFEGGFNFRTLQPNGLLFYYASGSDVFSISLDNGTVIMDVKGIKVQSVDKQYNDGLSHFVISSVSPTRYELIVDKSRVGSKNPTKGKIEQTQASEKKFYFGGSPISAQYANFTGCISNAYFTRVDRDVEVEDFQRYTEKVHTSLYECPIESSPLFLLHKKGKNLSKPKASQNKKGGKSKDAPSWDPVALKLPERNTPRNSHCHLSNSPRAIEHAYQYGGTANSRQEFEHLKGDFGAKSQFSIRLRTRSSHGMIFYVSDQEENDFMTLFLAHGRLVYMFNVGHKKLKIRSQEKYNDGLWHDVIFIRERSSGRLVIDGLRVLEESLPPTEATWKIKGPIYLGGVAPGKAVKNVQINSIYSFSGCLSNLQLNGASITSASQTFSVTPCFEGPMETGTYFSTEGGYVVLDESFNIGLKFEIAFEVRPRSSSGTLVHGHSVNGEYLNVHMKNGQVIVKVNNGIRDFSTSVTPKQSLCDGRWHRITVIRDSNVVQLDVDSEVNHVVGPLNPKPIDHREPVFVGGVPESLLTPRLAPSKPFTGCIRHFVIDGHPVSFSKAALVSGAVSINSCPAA
# T4: human LAMA4 LG4-5 fragment displayed on 293 cells (pDisplay) (human, UniProt Q16363 1453-1821, limits assumed)
# T4 sequence: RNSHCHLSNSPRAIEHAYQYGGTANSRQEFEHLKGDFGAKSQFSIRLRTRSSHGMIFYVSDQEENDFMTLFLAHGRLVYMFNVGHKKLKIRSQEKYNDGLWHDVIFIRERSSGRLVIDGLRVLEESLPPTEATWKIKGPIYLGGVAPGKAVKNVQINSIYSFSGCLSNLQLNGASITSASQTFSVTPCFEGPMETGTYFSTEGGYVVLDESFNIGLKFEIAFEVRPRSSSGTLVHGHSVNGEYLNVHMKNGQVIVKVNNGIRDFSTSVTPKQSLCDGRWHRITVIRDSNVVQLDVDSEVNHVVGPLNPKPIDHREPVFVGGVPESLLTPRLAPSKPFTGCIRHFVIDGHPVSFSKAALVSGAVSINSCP
# Legend:
# [1] = molecular target: T1, human LAMA4 G domain LG1-5 displayed on …; assay: flow cytometry on 293 cells displaying LAMA4 fragments
# Protocol: (§1) The specific binding of the chimeric 15F7, […] H1L2, H2L1, and H2L2 antibodies to the LG4-5 modules of the G domain of LAMA4 was tested by assessing the antibodies' ability to stain LAMA4-fragment-displaying 293 cells by flow cytometry, as shown in FIG. 9. Each of the antibodies was able to specifically bind 293 cells displaying LG1-5 and LG4-5, but not LG1-3.
# (§2) Human LAMA4 G-domains 1-5 and variants were cloned into pDisplay expression construct (Life Technologies) and transiently transfected into 293 cells using standard procedures. Anti-LAMA4 antibodies were incubated with cells for 30 min at 4° C. and followed by anti-mouse-650 for 30 minutes at 4° C. Cells were analyzed for anti-laminin binding by flow cytometry using standard procedures.
# [2] = molecular target: T2, human LAMA4 LG1-3 fragment displayed on …; assay: as above
# Protocol: as §1, §2
# [3] = molecular target: T3, LAMA4 / purified His-LAMA4 (species not …); assay: SPR (Biacore), full kinetic analysis; species of LAMA4 not stated
# [4] = molecular target: T4, human LAMA4 LG4-5 fragment displayed on …; assay: flow cytometry, serial dilution on 293 cells displaying LG4-5
# Protocol: Chimeric 15F7, H1L1, H1L2, H2L1, H2L2, and buffer alone were tested for their ability to bind to LAMA4-fragment-displaying cells. To test LAMA4 binding capacity, serially diluted antibodies were pre-incubated with human 293 cells displaying LG4-5, followed by anti-human-650 secondary antibody incubation as described in the Materials and Methods. Fluorescent signal was assessed via flow cytometric analyses and plotted as mean fluorescence intensity (MFI) as shown in FIG. 8.
# as §2
Binder,binding result [1],binding result [2],Kd [3],koff [3],kon [3],binding result [4]
"humanized 15F7 variant H1L1 (Hu15F7VHv1/Hu15F7VLv1) (antibody, V domains shown, They are human, since it was captured by a goat anti-human Fc sensor; also called VHv1/VLv1) VH: EVQLQQSGAEVKKPGSSVKLSCKASGYTFTSYGLSWVKQRAGQGLEWIGEIFPRSGNTYYNEKFKGKATLTADKSSSTAYMELRSLRSEDTAVYFCARGVRSPGAMDYWGQGTLVTVSS VL: DIQMTQSSSSLSASVGDRVTITCKASEDIYNRLAWYQQKPGNAPRLLISGATSLETGVPSRFSGSGSGKDYTLTISSLQTEDFATYYCQQYWSIPYTFGGGTKLEIKR",binds,no binding,0.12 nM,0.000183 s⁻¹,1.5e+06 M⁻¹ s⁻¹,binds
"humanized 15F7 variant H2L1 (Hu15F7VHv2/Hu15F7VLv1) (antibody, V domains shown, also called VHv2/VLv1) VH: EVQLQQSGAEVKKPGSSVKLSCKASGYTFTSYGLSWVKQRPGQGLEWIGEIFPRSGNTYYNEKFKGKATITADKSSSTAYMELRSLRSEDTAVYFCARGVRSPGAMDYWGQGTLVTVSS VL: DIQMTQSSSSLSASVGDRVTITCKASEDIYNRLAWYQQKPGNAPRLLISGATSLETGVPSRFSGSGSGKDYTLTISSLQTEDFATYYCQQYWSIPYTFGGGTKLEIKR",binds,no binding,0.13 nM,0.000205 s⁻¹,1.56e+06 M⁻¹ s⁻¹,binds

# Second part, the binder after the results:
binding result [1],binding result [2],Kd [3],koff [3],kon [3],binding result [4],Binder
,no binding,0.1 nM,0.000151 s⁻¹,1.5e+06 M⁻¹ s⁻¹,,"chimeric 15F7 (antibody, V domains shown) VH: QVQLQQSGTELARPGAAVKLSCKASGYTFTSYGLSWVKQRAGQGLEWIGEIFPRSGNTYYNEKFKGKATLTADKSSSTAYMELRSLTSEDSAVYFCARGVRSPGAMDYWGQGTSVTVSS VL: DIQMTQSSSSFSVSLGDRVTITCKASEDIYNRLAWYQQKPGNAPRLLISGATSLETGVPSRFSGSGSGKDYTLSITSLQTEDVATYYCQQYWSIPYTFGGGTNLEIKR"
binds,no binding,,,,binds,"humanized 15F7 variant H2L2 (Hu15F7VHv2/Hu15F7VLv2) (antibody, V domains shown, also called VHv2/VLv2) VH: EVQLQQSGAEVKKPGSSVKLSCKASGYTFTSYGLSWVKQRPGQGLEWIGEIFPRSGNTYYNEKFKGKATITADKSSSTAYMELRSLRSEDTAVYFCARGVRSPGAMDYWGQGTLVTVSS VL: DIQMTQSPSSLSASVGDRVTITCKASEDIYNRLAWYQQKPGNAPKLLISGATSLETGVPSRFSGSGSGKDFTLTISSLQPEDFATYYCQQYWSIPYTFGGGTKVEIKR"
binds,no binding,,,,binds,"humanized 15F7 variant H1L2 (Hu15F7VHv1/Hu15F7VLv2) (antibody, V domains shown, also called VHv1/VLv2) VH: EVQLQQSGAEVKKPGSSVKLSCKASGYTFTSYGLSWVKQRAGQGLEWIGEIFPRSGNTYYNEKFKGKATLTADKSSSTAYMELRSLRSEDTAVYFCARGVRSPGAMDYWGQGTLVTVSS VL: DIQMTQSPSSLSASVGDRVTITCKASEDIYNRLAWYQQKPGNAPKLLISGATSLETGVPSRFSGSGSGKDFTLTISSLQPEDFATYYCQQYWSIPYTFGGGTKVEIKR"
